Experiment [1] concerns the target T1, human full-length CD33 (CD33^FL) (UniProt P20138 18-364). Nature of the experiment: SPR (Carterra); hybridoma supernatant.
Experiment [2] addresses T1, human full-length CD33 (CD33^FL). Briefly: SPR (Carterra); 4 µg/mL.
The target is the same in experiment [3]. Nature of the experiment: SPR (Carterra); 1 µg/mL.
Experiment [4] has the same target. Briefly: SPR (Biacore T100).

The Kd is the free concentration of one partner at which half of the binding sites on the other are occupied at equilibrium, for simple one-to-one binding.

T1 sequence (P20138 18-364): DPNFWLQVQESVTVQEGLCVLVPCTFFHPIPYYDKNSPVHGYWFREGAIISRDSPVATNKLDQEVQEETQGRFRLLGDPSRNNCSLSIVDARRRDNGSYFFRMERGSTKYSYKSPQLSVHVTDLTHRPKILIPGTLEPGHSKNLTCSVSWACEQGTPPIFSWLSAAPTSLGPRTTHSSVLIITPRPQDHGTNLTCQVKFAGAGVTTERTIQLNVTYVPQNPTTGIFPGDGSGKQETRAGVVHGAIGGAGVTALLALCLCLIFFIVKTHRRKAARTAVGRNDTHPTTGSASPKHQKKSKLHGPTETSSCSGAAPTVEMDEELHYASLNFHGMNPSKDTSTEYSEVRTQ

B1: 1A9 antibody (human CD33^PAN antibody clone, hybridoma-derived) (antibody, V domains shown)
VH: EVQLVESGGGLVQPGGSLRLSCAASGFTFSIYDMHWVRQATGKGLEWVSAIGTAGDTYYAGSVKGRFTISRENAKNSLYLQMNSLRAGDTAVYYCAREYSGYYFDYWGQGTLVTVSS
VL: AIQMTQSPSSLSASVGDRVTITCRASQDIRNDLGWYQQKPGKAPKILIYGASSLQSGVPSRFSGSGSGTDFTFTISSLQPEDFATYYCLQEYNYPCTFGQGTKLEIK
Turning to B1, the Kd in experiment [1] was found to be 67 nM; in experiment [2], 130 nM; in experiment [3] it was 36 nM.

B2: 1H10 antibody (human CD33^PAN antibody clone, hybridoma-derived) (antibody, V domains shown)
VH: QVQLVQSGAEVKKPGASVKVSCKGSGYIFTSYDMHWVRQAPGQGLEWMGIIDPSGGSTSYAQKFQGRVTMTRDTSMSTVYMELSSLRSEDTAVYYCTRDYSWSYFDYWGQGTLVTVSS
VL: AIQMTQSPSSLSASVGDRVTITCRASQGIRIYLGWYQQKPGKAPKLLIYATSSLQSGVPSRFSGSGSGTDFTLTISSLQPEDFATYYCLQDYNYPWTFGQGTKVEIK
Consider B2, for which the Kd in experiment [1] was 112 nM; in experiment [2], 42 nM; in experiment [3], 13 nM; in experiment [4], 3.71 nM.

B3: 1B9 antibody (human CD33^PAN antibody clone, hybridoma-derived) (antibody, V domains shown)
VH: QVQLVESGGGVVQPGRSLRLSCAASGFIFSSYDIHWVRQAPGKGLEWVAVIWYDGSHNYYSDSVKGRFTISRDNSKNTLYLQMNSLRAEDTAVYYCARDYSGSYFDYWGQGTLVTVSS
VL: AIQMTQSPSSLSASVGDRVTITCRASQDIRNDLGWYLQRPGKAPKLLIYAASSLQSGVPSRFSGSGSGTDFTLTISSLQPEDFATYYCLQDYSYPRTFGQGTTVEIK
Consider B3, for which, in experiment [1], the Kd came to 77 nM.

B4: 1E6 antibody (human CD33^PAN antibody clone, hybridoma-derived) (antibody, V domains shown)
VH: QVQLVESGGGVVQPGRSLRLSCAASGFTFSSYDIHWVRQAPGKGLEWVAVIWYDGSHNYYSDSVKGRFTISRDNSKNTLYLQMNSLRAEDTAVYYCARDYSGSYYDYWGQGTLVTVSS
VL: AIQMTQSPSSLSASVGDRVTITCRASQGIRNDLGWYQQKPGKAPKLLIYAASNLQSGVPSRFSGSGSGTDFTLTISSLQPEDFATYYCLQDYSYPRTFGQGTKVEIK
In the case of B4, the values for the Kd in experiment [1], in experiment [2] and in experiment [3] were 69 nM, 78 nM and 67 nM, respectively.

B5: 1D2 antibody (human CD33^PAN antibody clone, hybridoma-derived) (antibody, V domains shown)
VH: QVQLVESGGGVVQPGRSLRLSCAASGFTFSSYDIHWVRQAPGKGLEWVAVIWYDGSQKYYADSVKGRFTISRDNSKNTLYLQMNSLRAEDTAVYYCARDYSGSYYDYWGQGTLVTVSS
VL: AIQMTQSPSSLSASVGDRVTITCRASQGIRNDLGWYQQKPGKAPELLIYATSSLQSGVPSRFSGSGSGTDFTLIISSLQPEDFATYYCLQDYSYPRTFGQGTKVEIK
Turning to B5, binding in experiment [1] was characterised by a dissociation constant (Kd) of 116 nM.

B6: 1H8 antibody (human CD33V-set antibody clone, hybridoma-derived) (antibody, V domains shown)
VH: QVQLVESGGGVVQPGGSLRLSCAASGFTFGSYGMHWVRQAPGKGLEWVAVIWYDGSNEYYADSVKGRFTVSRDNSKHTLYLQMNRLRAEDTAVYYCARDLDYDSSGGDYWGQGILVLVSS
VL: EIVLTQSPDFQSVTPKEKVTITCRASQNIGGNLHWYQQKPDQSPKLLIRYATQPFSGVPSRFGGSGSGTDFTLTINSLEAEDAATYYCHQSSSLPLTFGGGTKVEIK
Take B6: the Kd in experiment [2] is 40 nM; in experiment [3] it was 24 nM.

B7: 2D3 antibody (human CD33V-set antibody clone, hybridoma-derived) (antibody, V domains shown)
VH: EVQLLESGGGLVQPGGSLSLSCAASGFTFSIYAMSWVRQAPGKGLEWVSAISDSGGTTYYADSVKGRFTISRDNSKNMLYLEMNSLRAEDTAIYYCAKRTRYFNGMDVWGQGTTVTVSS
VL: EIVMTQSPATLSLSPGERATLSCRASQSGSSSFLSWYQQKPGQAPRLLIYGASTRATGIPARFSGSGSGTDFTLTISSLQPEDFAVYYCQQDYNLPFTFGPGTKVDIK
B7: the Kd in experiment [2] amounted to 27 nM; in experiment [3] it was 18 nM; in experiment [4] it was 4.89 nM.

The record behind these values is patent US20260265404A1 (published 2026).
